From patent publication US20030203373A1 (priority 2002, published 2003)

Key:
[1] = biological target: T1, angiotensin-converting enzyme (ACE) from pig kidney (EC 3.4.15.1 (Sigma)) (pig) (UniProt F1RRW5); test: cell-based or functional assay
T1 sequence (looked up): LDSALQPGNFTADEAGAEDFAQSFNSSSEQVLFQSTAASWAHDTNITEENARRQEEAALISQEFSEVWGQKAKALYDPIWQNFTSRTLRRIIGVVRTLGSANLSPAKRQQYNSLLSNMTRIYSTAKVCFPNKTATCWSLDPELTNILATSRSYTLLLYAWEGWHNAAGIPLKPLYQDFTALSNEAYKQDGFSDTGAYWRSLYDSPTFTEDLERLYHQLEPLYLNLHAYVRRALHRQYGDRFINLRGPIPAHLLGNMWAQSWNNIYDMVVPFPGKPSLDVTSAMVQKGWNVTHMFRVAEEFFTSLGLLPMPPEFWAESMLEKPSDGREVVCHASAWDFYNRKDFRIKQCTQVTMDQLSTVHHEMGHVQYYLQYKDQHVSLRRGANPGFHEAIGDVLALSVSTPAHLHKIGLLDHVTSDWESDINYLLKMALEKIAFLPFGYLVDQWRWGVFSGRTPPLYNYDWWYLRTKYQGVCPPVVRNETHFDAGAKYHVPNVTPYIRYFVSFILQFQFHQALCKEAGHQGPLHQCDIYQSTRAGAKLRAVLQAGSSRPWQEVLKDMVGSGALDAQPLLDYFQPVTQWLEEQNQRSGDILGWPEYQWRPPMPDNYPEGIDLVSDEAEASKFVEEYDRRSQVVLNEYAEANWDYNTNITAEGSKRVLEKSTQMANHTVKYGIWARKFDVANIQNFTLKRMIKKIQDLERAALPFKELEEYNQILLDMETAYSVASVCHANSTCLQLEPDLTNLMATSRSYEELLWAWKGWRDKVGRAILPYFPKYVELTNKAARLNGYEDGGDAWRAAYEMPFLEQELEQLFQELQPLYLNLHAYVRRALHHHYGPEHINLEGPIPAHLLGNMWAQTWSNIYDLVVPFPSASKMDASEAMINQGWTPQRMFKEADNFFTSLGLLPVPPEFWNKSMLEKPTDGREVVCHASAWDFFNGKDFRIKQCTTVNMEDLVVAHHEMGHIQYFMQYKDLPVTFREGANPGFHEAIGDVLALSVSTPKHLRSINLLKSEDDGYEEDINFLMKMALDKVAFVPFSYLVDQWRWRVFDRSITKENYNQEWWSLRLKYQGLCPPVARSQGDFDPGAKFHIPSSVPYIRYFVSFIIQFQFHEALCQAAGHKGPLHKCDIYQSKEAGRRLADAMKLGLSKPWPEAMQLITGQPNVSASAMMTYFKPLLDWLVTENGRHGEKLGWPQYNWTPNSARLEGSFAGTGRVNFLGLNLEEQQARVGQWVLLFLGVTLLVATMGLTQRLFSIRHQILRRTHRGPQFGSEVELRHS

[2] = biological target: T2, angiotensin-converting-enzyme derived from pig kidney (pig) (UniProt F1RRW5); test: cell-based or functional assay
T2 sequence (looked up): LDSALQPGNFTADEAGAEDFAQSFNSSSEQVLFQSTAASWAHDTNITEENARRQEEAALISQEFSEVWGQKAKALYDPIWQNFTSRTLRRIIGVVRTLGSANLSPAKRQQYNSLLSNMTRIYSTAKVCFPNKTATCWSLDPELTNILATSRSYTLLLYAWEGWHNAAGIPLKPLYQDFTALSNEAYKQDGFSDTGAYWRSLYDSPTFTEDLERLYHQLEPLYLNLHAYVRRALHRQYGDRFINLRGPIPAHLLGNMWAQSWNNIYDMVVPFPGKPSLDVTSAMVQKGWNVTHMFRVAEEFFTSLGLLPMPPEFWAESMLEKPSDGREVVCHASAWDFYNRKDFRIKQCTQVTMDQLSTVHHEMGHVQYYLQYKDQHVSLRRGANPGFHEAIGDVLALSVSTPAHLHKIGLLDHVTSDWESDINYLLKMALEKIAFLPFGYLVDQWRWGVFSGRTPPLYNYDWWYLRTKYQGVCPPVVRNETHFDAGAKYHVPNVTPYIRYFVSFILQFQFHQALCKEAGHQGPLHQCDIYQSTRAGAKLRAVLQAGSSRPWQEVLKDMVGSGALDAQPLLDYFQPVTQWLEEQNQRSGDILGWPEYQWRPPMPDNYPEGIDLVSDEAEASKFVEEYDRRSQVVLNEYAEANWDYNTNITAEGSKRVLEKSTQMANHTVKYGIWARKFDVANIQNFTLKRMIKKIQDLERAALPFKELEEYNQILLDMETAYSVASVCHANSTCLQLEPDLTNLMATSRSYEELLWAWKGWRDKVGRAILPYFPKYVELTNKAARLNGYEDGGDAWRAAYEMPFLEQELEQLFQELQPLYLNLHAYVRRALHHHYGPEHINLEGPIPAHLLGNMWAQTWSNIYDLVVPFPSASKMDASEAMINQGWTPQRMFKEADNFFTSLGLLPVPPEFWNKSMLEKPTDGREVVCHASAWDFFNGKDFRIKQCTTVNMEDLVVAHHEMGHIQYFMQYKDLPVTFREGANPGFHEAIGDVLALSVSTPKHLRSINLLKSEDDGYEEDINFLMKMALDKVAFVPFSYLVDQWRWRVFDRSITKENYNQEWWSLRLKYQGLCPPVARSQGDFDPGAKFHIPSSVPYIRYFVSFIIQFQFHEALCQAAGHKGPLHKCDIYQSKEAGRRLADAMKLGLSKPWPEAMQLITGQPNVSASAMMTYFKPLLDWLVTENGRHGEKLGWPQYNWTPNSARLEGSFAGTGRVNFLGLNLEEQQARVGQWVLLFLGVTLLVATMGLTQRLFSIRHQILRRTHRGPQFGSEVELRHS

B1: Peptid S548 (PLPEVPP) (peptide)
chain: PLPEVPP
B1 gave a % inhibition of ACE, 0.39 µM inhibitor, row A [1] of 9.98%, a % inhibition of ACE, 0.39 µM inhibitor, row B [1] of 5.85% and a % inhibition of ACE, 0.39 µM inhibitor, row C [1] of 4.63%. It also gave a % inhibition of ACE, 0.39 µM inhibitor, row D [1] of -9.77%, a % inhibition of ACE, 0.78125 µM inhibitor, row A [1] of 12.8% and a % inhibition of ACE, 0.78125 µM inhibitor, row B [1] of 18.5%. The % inhibition of ACE, 0.78125 µM inhibitor, row C [1] was 6.03%, the % inhibition of ACE, 0.78125 µM inhibitor, row D [1] was 2.73% and the % inhibition of ACE, 1.5625 µM inhibitor, row A [1] was 14.3%. For the same binder, the % inhibition of ACE, 1.5625 µM inhibitor, row B [1] was 25.6%, the % inhibition of ACE, 1.5625 µM inhibitor, row C [1] was 11.2% and the % inhibition of ACE, 1.5625 µM inhibitor, row D [1] was 4.98%. It also gave a % inhibition of ACE, 3.125 µM inhibitor, row A [1] of 20.4%, a % inhibition of ACE, 3.125 µM inhibitor, row B [1] of 18.6% and a % inhibition of ACE, 3.125 µM inhibitor, row C [1] of 16.3%. It also gave a % inhibition of ACE, 3.125 µM inhibitor, row D [1] of 12.7%, a % inhibition of ACE, 6.25 µM inhibitor, row A [1] of 30.6% and a % inhibition of ACE, 6.25 µM inhibitor, row B [1] of 28.8%. It also gave a % inhibition of ACE, 6.25 µM inhibitor, row C [1] of 25.2%, a % inhibition of ACE, 6.25 µM inhibitor, row D [1] of 22.6% and a % inhibition of ACE, 12.5 µM inhibitor, row A [1] of 36.8%. It also gave a % inhibition of ACE, 12.5 µM inhibitor, row B [1] of 37.2%, a % inhibition of ACE, 12.5 µM inhibitor, row C [1] of 35.7% and a % inhibition of ACE, 12.5 µM inhibitor, row D [1] of 31.6%. The % inhibition of ACE, 25 µM inhibitor, row A [1] was 55.7%, the % inhibition of ACE, 25 µM inhibitor, row B [1] was 54.8% and the % inhibition of ACE, 25 µM inhibitor, row C [1] was 56.7%. For the same binder, the % inhibition of ACE, 25 µM inhibitor, row D [1] was 54.5%, the % inhibition of ACE, 50 µM inhibitor, row A [1] was 69.5% and the % inhibition of ACE, 50 µM inhibitor, row B [1] was 68.1%. The % inhibition of ACE, 50 µM inhibitor, row C [1] was 64.2%, the % inhibition of ACE, 50 µM inhibitor, row D [1] was 62.3% and the % inhibition of ACE, 100 µM inhibitor, row A [1] was 81.8%. For the same binder, the % inhibition of ACE, 100 µM inhibitor, row B [1] was 80.4%, the % inhibition of ACE, 100 µM inhibitor, row C [1] was 78.9% and the % inhibition of ACE, 100 µM inhibitor, row D [1] was 77.8%. It also gave a % inhibition of ACE, 200 µM inhibitor, row A [1] of 89.3%, a % inhibition of ACE, 200 µM inhibitor, row B [1] of 88.5% and a % inhibition of ACE, 200 µM inhibitor, row C [1] of 88.4%. For the same binder, the % inhibition of ACE, 200 µM inhibitor, row D [1] was 87.9%, the fluorescence (ACE activity), 0.39 µM inhibitor, row A [1] was 813000 and the fluorescence (ACE activity), 0.39 µM inhibitor, row B [1] was 850000. The fluorescence (ACE activity), 0.39 µM inhibitor, row C [1] was 861000, the fluorescence (ACE activity), 0.39 µM inhibitor, row D [1] was 990000 and the fluorescence (ACE activity), 0.78125 µM inhibitor, row A [1] was 788000. For the same binder, the fluorescence (ACE activity), 0.78125 µM inhibitor, row B [1] was 737000, the fluorescence (ACE activity), 0.78125 µM inhibitor, row C [1] was 848000 and the fluorescence (ACE activity), 0.78125 µM inhibitor, row D [1] was 878000. For the same binder, the fluorescence (ACE activity), 1.5625 µM inhibitor, row A [1] was 774000, the fluorescence (ACE activity), 1.5625 µM inhibitor, row B [1] was 673000 and the fluorescence (ACE activity), 1.5625 µM inhibitor, row C [1] was 803000. The fluorescence (ACE activity), 1.5625 µM inhibitor, row D [1] was 858000, the fluorescence (ACE activity), 3.125 µM inhibitor, row A [1] was 720000 and the fluorescence (ACE activity), 3.125 µM inhibitor, row B [1] was 736000. It also gave a fluorescence (ACE activity), 3.125 µM inhibitor, row C [1] of 756000, a fluorescence (ACE activity), 3.125 µM inhibitor, row D [1] of 789000 and a fluorescence (ACE activity), 6.25 µM inhibitor, row A [1] of 628000. For the same binder, the fluorescence (ACE activity), 6.25 µM inhibitor, row B [1] was 644000, the fluorescence (ACE activity), 6.25 µM inhibitor, row C [1] was 676000 and the fluorescence (ACE activity), 6.25 µM inhibitor, row D [1] was 699000. For the same binder, the fluorescence (ACE activity), 12.5 µM inhibitor, row A [1] was 573000, the fluorescence (ACE activity), 12.5 µM inhibitor, row B [1] was 668000 and the fluorescence (ACE activity), 12.5 µM inhibitor, row C [1] was 583000. It also gave a fluorescence (ACE activity), 12.5 µM inhibitor, row D [1] of 619000, a fluorescence (ACE activity), 25 µM inhibitor, row A [1] of 402000 and a fluorescence (ACE activity), 25 µM inhibitor, row B [1] of 411000. The fluorescence (ACE activity), 25 µM inhibitor, row C [1] was 394000, the fluorescence (ACE activity), 25 µM inhibitor, row D [1] was 413000 and the fluorescence (ACE activity), 50 µM inhibitor, row A [1] was 278000. For the same binder, the fluorescence (ACE activity), 50 µM inhibitor, row B [1] was 292000, the fluorescence (ACE activity), 50 µM inhibitor, row C [1] was 326000 and the fluorescence (ACE activity), 50 µM inhibitor, row D [1] was 343000. The fluorescence (ACE activity), 100 µM inhibitor, row A [1] was 168000, the fluorescence (ACE activity), 100 µM inhibitor, row B [1] was 181000 and the fluorescence (ACE activity), 100 µM inhibitor, row C [1] was 194000. The fluorescence (ACE activity), 100 µM inhibitor, row D [1] was 204000, the fluorescence (ACE activity), 200 µM inhibitor, row A [1] was 101000 and the fluorescence (ACE activity), 200 µM inhibitor, row B [1] was 108000. For the same binder, the fluorescence (ACE activity), 200 µM inhibitor, row C [1] was 109000 and the fluorescence (ACE activity), 200 µM inhibitor, row D [1] was 114000.

B2: S492 (peptide)
chain: QVLSEPNEEAGAALSPLPEVPP
modifications: N-terminal pyroglutamate
With B2 the IC50, ACE inhibition [2] was over 300 µM.
